Tests used:
[1] = target: T1, recombinant human MDA5 protein (human, UniProt Q9BYX4 1-1025); experiment: electrochemiluminescence sandwich immunoassay (MSD), H46 coated as primary (capture) mAb
T1 construct: Expressed in SF9 cells with baculovirus; also called pPSC8/human MDA5 product; MDA5 standard; not shown: N-terminal 6X His tag, GST and turbo 3C protease cleavage site
T1 sequence: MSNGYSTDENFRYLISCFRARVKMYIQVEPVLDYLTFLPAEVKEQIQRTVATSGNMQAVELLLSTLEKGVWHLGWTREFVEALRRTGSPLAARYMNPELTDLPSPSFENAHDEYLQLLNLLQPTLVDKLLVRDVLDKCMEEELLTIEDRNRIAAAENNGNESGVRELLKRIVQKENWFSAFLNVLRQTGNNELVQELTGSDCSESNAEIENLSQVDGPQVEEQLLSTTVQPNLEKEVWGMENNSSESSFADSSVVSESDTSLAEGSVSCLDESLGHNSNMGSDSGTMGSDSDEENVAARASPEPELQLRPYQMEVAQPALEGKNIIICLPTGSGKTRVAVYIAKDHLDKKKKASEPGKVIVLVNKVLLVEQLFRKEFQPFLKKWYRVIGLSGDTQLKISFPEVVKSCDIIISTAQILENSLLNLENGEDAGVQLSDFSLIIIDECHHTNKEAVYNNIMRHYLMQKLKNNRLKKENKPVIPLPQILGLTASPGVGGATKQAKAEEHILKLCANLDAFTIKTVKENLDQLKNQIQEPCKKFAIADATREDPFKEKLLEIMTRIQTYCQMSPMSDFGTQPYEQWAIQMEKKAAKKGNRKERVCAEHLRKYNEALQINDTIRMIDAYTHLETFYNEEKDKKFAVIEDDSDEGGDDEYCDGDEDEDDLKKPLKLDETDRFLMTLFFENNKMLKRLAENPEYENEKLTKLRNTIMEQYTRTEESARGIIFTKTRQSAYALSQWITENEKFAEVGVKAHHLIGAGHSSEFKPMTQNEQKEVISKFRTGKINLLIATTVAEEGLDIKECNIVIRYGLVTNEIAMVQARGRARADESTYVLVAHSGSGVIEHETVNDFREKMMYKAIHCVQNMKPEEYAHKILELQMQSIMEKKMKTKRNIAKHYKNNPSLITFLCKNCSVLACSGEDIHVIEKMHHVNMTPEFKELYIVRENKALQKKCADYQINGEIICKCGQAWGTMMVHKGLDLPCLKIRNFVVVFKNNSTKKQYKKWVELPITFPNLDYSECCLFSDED
Experimental: The human MDA5 sandwich immunoassay system was established using electrochemiluminescence in a MESOSCALE DISCOVERY (registered trademark) assay system (Meso Scale Japan, Tokyo, Japan). Briefly, mouse anti-human MDA5 monoclonal antibody (clone H46) was used as the primary mAb, dissolved at 2 µg/mL in phosphate-buffered saline (PBS), dispensed into plates in aliquots of 25 µL/well, and left undisturbed overnight at 4° C. The plates were then washed three times with 150 µL Quantikine Wash Buffer 1 (R&D Systems, Minneapolis, MN, USA). Block Ace blocking solution (100 µL/well; Nacalai Tesque, Kyoto, Japan) was added and incubated for at least one hour at room temperature to prevent nonspecific adhesion of the secondary antibody to the plates. The plates were then washed thrice. The samples were aliquoted at 25 µL/well. Recombinant human MDA5 protein diluted to 50 ng/mL, 10 ng/mL, 2 ng/mL, 400 pg/mL, 80 pg/mL, 16 pg/mL, and 3.2 pg/mL was used as a standard. After 1 h of incubation at room temperature, each well was washed thrice. Next, 2 µg/mL biotin-labeled mouse anti-human MDA5 secondary mAb (clone H27) was added at 25 µL/well, followed by incubation for 1 h at room temperature after which each well was washed three times. […] The amount of human MDA5 protein was measured using MESO QuickPlex SQ 120 according to the manufacturer’s protocol.

[2] = target: T2, human MDA5 protein (full-length, about 120 kDa) (human, UniProt Q9BYX4 1-1025); experiment: Western blot of normal lung and lung cancer tissues, mAb at 1 ug/mL
T2 construct: Endogenous cytoplasmic protein in human tissue sections, tissue lysates and PBMCs (band of about 120 kDa); also called IFIH1
T2 sequence: T1 sequence
Experimental: Western blotting analysis was performed by using NuPAGE (registered trademark) 7% Tris-Acetate Midi Gel (Thermo Fisher Scientific, Tokyo, Japan) according to the manufacture’s protocol. Anti-human MDA5 mAb (clone H27 or clone H46, 1 µg/mL) was used for immunoblotting, as previously reported (T. Hoshino, et al., Am J Respir Crit Care Med 176 (2007) 49-62).

B1: mouse anti-human MDA5 monoclonal antibody (H46) (antibody, V domains shown)
VH: EFQLQQSGPELVKPGASVKISCKASGYSFTDYNMNWVKQSNGKSLEWIGVINPDYGSTSYNKKFKGKATLTVDQSSTTAYMQLNSLTSEDSAVYFCARDRYGNYFDYWGQGTTLTVSS
VL: QIVLTQSPAIMSASPGEKVTMTCSASSSLNYMHWYLQKPGTSPKRWIYDTSKLASGVPARFSGSGSGTSYSLTISSMEAEDAATYYCHQRSSYPITFGSGTKLEIK
notes: Mouse IgG2b from a hybridoma; also called clone H46; H46 [mouse IgG2b]
B1: binds [1]; binds [2].

From US20230314433A1 (KURUME UNIVERSITY, published 2023)
